Reference: paper PMC2779590

Molecular target: stable 100 kDa N-terminal fragment of CagA (Helicobacter pylori (strain not stated)) (UniProt P55980)
Experiment: SPR

stable 100 kDa N-terminal fragment of CagA (Helicobacter pylori (strain not stated)), sequence (P55980 1-885 limits assumed): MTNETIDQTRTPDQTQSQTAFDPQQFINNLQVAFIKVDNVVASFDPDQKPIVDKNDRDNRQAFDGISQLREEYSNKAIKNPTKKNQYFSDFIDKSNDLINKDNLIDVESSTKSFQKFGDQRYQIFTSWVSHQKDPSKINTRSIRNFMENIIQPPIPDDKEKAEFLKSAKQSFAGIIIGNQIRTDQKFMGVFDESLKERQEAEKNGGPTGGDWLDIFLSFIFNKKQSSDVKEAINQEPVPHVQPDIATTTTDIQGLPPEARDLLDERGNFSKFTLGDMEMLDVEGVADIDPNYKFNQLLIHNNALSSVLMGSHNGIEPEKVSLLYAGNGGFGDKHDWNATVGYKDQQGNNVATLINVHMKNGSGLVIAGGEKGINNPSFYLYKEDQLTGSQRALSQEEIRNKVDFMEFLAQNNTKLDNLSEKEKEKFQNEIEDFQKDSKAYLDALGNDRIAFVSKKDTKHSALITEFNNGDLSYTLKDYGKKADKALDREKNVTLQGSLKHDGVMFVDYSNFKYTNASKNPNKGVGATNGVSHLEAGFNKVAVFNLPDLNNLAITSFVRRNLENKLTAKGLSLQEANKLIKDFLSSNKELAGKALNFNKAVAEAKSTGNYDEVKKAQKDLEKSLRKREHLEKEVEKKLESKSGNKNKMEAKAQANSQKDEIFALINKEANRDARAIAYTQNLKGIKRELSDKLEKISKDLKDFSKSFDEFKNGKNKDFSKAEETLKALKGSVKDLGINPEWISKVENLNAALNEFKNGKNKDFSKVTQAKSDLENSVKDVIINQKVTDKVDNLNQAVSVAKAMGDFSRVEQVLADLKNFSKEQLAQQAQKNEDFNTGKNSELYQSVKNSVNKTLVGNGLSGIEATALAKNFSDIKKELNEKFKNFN

## purified human α5β1 integrin (from placenta) (from UniProt P05556 21-798) (complex)
  Kd: 0.153 nM

## purified human αVβ3 integrin (from placenta) (from UniProt P05106 27-788) (complex)
  Kd: 33.4 nM
